# Measurements published in US20250250357A1 (NANJING ZAIMING PHARMACEUTICAL, published 2025).
# Positions count from the first letter of the chain named.
# B1: F7.44.20-H3 (scFv, not shown: small tags and cut ends)
# scFv: EVQLVQSGAEVKKPGASVKVSCKASGYTFTDYNMDWVRQAPGQGLEWMGDINPSTGGTIYNQKFNGRVTMTEDKSTSTVYMELSSLRSEDTAVYYCARRRIGTGYFDVWGQGTTVTVSSGGGGSGGGGSGGGGSEIVLTQSPATLSLSPGERATLSCSASSSVISSYLSWYQQKPGQSPRLLIYRTSNLASGIPARFSGSGSGTDYTLTISSLEPEDFAVYYCHQWSSFPYTFGGGTKVEIK
# notes: also called S009-F7.44.20 humanized antibody VH1 + VL3
# B2: F7.44.20-H7 (scFv, not shown: small tags and cut ends)
# scFv: B1 scFv with N65Q
# notes: also called S009-F7.44.20 humanized antibody VH1a + VL3
# B3: F7.44.20-H4 (scFv, not shown: small tags and cut ends)
# scFv: B1 scFv with Q177S
# notes: also called S009-F7.44.20 humanized antibody VH1 + VL4
# B4: F7.44.20-H1 (scFv, not shown: small tags and cut ends)
# scFv: EVQLVQSGAEVKKPGASVKVSCKASGYTFTDYNMDWVRQAPGQGLEWMGDINPSTGGTIYNQKFNGRVTMTEDKSTSTVYMELSSLRSEDTAVYYCARRRIGTGYFDVWGQGTTVTVSSGGGGSGGGGSGGGGSEIVLTQSPDFQSVTPKEKVTITCSASSSVISSYLSWYQQKPDQSPKLLIYRTSNLASGVPSRFSGSGSGTDFTLTINSLEAEDAATYYCHQWSSFPYTFGGGTKVEIK
# notes: also called S009-F7.44.20 humanized antibody VH1 + VL1
# B5: F7.44.20-H13 (scFv, not shown: small tags and cut ends)
# scFv: B4 scFv with N65S, T76A
# notes: also called S009-F7.44.20 humanized antibody VH2a + VL1
# B6: F7.44.20-H5 (scFv, not shown: small tags and cut ends)
# scFv: B4 scFv with N65Q
# notes: also called S009-F7.44.20 humanized antibody VH1a + VL1
# B7: F7.44.20-H14 (scFv, not shown: small tags and cut ends)
# scFv: B4 scFv with N65S, T76A, F206Y
# notes: also called S009-F7.44.20 humanized antibody VH2a + VL2
# B8: F7.44.20-H10 (scFv, not shown: small tags and cut ends)
# scFv: B4 scFv with T76A, F206Y
# notes: also called S009-F7.44.20 humanized antibody VH2 + VL2
# B9: F7.44.20-H2 (scFv, not shown: small tags and cut ends)
# scFv: B4 scFv with F206Y
# notes: also called S009-F7.44.20 humanized antibody VH1 + VL2
# B10: F7.44.20-H6 (scFv, not shown: small tags and cut ends)
# scFv: B4 scFv with N65Q, F206Y
# notes: also called S009-F7.44.20 humanized antibody VH1a + VL2
# B11: F7.44.20-H9 (scFv, not shown: small tags and cut ends)
# scFv: B4 scFv with T76A
# notes: also called S009-F7.44.20 humanized antibody VH2 + VL1
# Biological target: T1, human MSLN-R3 protein (human, UniProt Q13421 487-598)
# T1 construct: also called hMSLN-R3
# T1 sequence (Q13421 495-606, form in doubt): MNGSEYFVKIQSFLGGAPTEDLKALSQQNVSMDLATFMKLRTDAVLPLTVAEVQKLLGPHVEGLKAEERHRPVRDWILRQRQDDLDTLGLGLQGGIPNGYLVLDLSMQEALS
# Assay: ELISA on coated antigen, antibody 10 nM
row,OD450,Binder
1,2.12 OD450,B1
2,2.23 OD450,B2
3,2.11 OD450,B3
4,2.27 OD450,B4
5,1.57 OD450,B5
6,2.05 OD450,B6
7,1.69 OD450,B7
8,2.25 OD450,B8
9,2.22 OD450,B9
10,2.15 OD450,B10
11,2.1 OD450,B11

# Biological target: T2, human MSLN-hFc protein (Acro, Cat. No. MSN-H5253) (human, UniProt Q13421 296-580)
# T2 construct: the method names the coated protein as human MSLN-hFc (Acro); also called human MSLN full-length protein
# T2 sequence (Q13421 other isoform, or with tags, fused parts or gaps limits assumed): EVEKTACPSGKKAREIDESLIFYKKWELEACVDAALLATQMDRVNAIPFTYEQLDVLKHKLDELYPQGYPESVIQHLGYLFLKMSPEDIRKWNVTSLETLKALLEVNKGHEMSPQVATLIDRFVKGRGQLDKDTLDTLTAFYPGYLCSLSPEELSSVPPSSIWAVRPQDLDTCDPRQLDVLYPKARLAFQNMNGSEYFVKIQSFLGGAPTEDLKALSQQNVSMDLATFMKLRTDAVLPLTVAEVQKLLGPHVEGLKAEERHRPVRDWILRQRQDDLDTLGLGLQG
# Assay: ELISA on coated antigen, antibody 0.01 nM
row,OD450,Binder
1,0.06 OD450,B1
2,0.06 OD450,B2
3,0.06 OD450,B3
4,0.06 OD450,B4
5,0.06 OD450,B5
6,0.05 OD450,B6
7,0.07 OD450,B7
8,0.06 OD450,B8
9,0.05 OD450,B9
10,0.07 OD450,B10
11,0.06 OD450,B11

# Biological target: T1, human MSLN-R3 protein
# Assay: ELISA on coated antigen, antibody 0.001 nM
row,OD450,Binder
1,0.04 OD450,B1
2,0.04 OD450,B2
3,0.04 OD450,B3
4,0.05 OD450,B4
5,0.05 OD450,B5
6,0.04 OD450,B6
7,0.04 OD450,B7
8,0.04 OD450,B8
9,0.05 OD450,B9
10,0.05 OD450,B10
11,0.04 OD450,B11

# Biological target: T2, human MSLN-hFc protein (Acro, Cat. No. …)
# Assay: ELISA on coated antigen, antibody 10 nM
row,OD450,Binder
1,2.74 OD450,B1
2,2.99 OD450,B2
3,2.99 OD450,B3
4,2.94 OD450,B4
5,2.81 OD450,B5
6,3.01 OD450,B6
7,2.89 OD450,B7
8,2.93 OD450,B8
9,2.71 OD450,B9
10,2.91 OD450,B10
11,2.97 OD450,B11

# Biological target: T2, human MSLN-hFc protein (Acro, Cat. No. …)
# Assay: ELISA on coated antigen, antibody 1 nM
row,OD450,Binder
1,1.22 OD450,B1
2,1.74 OD450,B2
3,1.14 OD450,B3
4,1.46 OD450,B4
5,0.98 OD450,B5
6,1.3 OD450,B6
7,1.2 OD450,B7
8,1.44 OD450,B8
9,1.26 OD450,B9
10,1.95 OD450,B10
11,1.3 OD450,B11

# Biological target: T1, human MSLN-R3 protein
# Assay: ELISA on coated antigen, antibody 1 nM
row,OD450,Binder
1,0.83 OD450,B1
2,1.18 OD450,B2
3,0.74 OD450,B3
4,1.16 OD450,B4
5,0.45 OD450,B5
6,0.8 OD450,B6
7,0.66 OD450,B7
8,0.81 OD450,B8
9,0.95 OD450,B9
10,1.31 OD450,B10
11,0.72 OD450,B11

# Biological target: T2, human MSLN-hFc protein (Acro, Cat. No. …)
# Assay: ELISA on coated antigen, antibody 0.0001 nM
row,OD450,Binder
1,0.04 OD450,B1
2,0.04 OD450,B2
3,0.05 OD450,B3
4,0.05 OD450,B4
5,0.06 OD450,B5
6,0.04 OD450,B6
7,0.05 OD450,B7
8,0.05 OD450,B8
9,0.04 OD450,B9
10,0.05 OD450,B10
11,0.05 OD450,B11

# Biological target: T2, human MSLN-hFc protein (Acro, Cat. No. …)
# Assay: ELISA on coated antigen, antibody 100 nM
row,OD450,Binder
1,2.96 OD450,B1
2,3.05 OD450,B2
3,3.2 OD450,B3
4,3.04 OD450,B4
5,3.12 OD450,B5
6,2.94 OD450,B6
7,3.13 OD450,B7
8,3.25 OD450,B8
9,3.06 OD450,B9
10,3.04 OD450,B10
11,3.25 OD450,B11

# Biological target: T1, human MSLN-R3 protein
# Assay: ELISA on coated antigen, antibody 0.0001 nM
row,OD450,Binder
1,0.05 OD450,B1
2,0.05 OD450,B2
3,0.05 OD450,B3
4,0.05 OD450,B4
5,0.05 OD450,B5
6,0.05 OD450,B6
7,0.04 OD450,B7
8,0.04 OD450,B8
9,0.05 OD450,B9
10,0.05 OD450,B10
11,0.04 OD450,B11

# Biological target: T2, human MSLN-hFc protein (Acro, Cat. No. …)
# Assay: ELISA on coated antigen, antibody 0.001 nM
row,OD450,Binder
1,0.04 OD450,B1
2,0.04 OD450,B2
3,0.04 OD450,B3
4,0.05 OD450,B4
5,0.06 OD450,B5
6,0.04 OD450,B6
7,0.05 OD450,B7
8,0.04 OD450,B8
9,0.04 OD450,B9
10,0.05 OD450,B10
11,0.05 OD450,B11

# Biological target: T1, human MSLN-R3 protein
# Assay: ELISA on coated antigen, antibody 0.1 nM
row,OD450,Binder
1,0.1 OD450,B1
2,0.16 OD450,B2
3,0.1 OD450,B3
4,0.16 OD450,B4
5,0.08 OD450,B5
6,0.11 OD450,B6
7,0.1 OD450,B7
8,0.11 OD450,B8
9,0.11 OD450,B9
10,0.21 OD450,B10
11,0.11 OD450,B11

# Biological target: T1, human MSLN-R3 protein
# Assay: ELISA on coated antigen, antibody 100 nM
row,OD450,Binder
1,2.21 OD450,B1
2,2.1 OD450,B2
3,2.32 OD450,B3
4,2.3 OD450,B4
5,1.94 OD450,B5
6,2.27 OD450,B6
7,1.9 OD450,B7
8,2.44 OD450,B8
9,2.35 OD450,B9
10,2.12 OD450,B10
11,2.52 OD450,B11

# Biological target: T1, human MSLN-R3 protein
# Assay: ELISA on coated antigen, antibody 0.01 nM
row,OD450,Binder
1,0.04 OD450,B1
2,0.05 OD450,B2
3,0.04 OD450,B3
4,0.06 OD450,B4
5,0.05 OD450,B5
6,0.04 OD450,B6
7,0.04 OD450,B7
8,0.04 OD450,B8
9,0.05 OD450,B9
10,0.05 OD450,B10
11,0.04 OD450,B11

# Biological target: T2, human MSLN-hFc protein (Acro, Cat. No. …)
# Assay: ELISA on coated antigen, antibody 0.1 nM
row,OD450,Binder
1,0.15 OD450,B1
2,0.3 OD450,B2
3,0.19 OD450,B3
4,0.22 OD450,B4
5,0.16 OD450,B5
6,0.19 OD450,B6
7,0.19 OD450,B7
8,0.24 OD450,B8
9,0.16 OD450,B9
10,0.37 OD450,B10
11,0.19 OD450,B11
